Assay results taken from article doi:10.1101/2021.12.28.474321 (bioRxiv, 2021).

B1: recombinant fructose-1,6-bisphosphate aldolase 3 from Chlamydomonas reinhardtii (CrFBA3) (enzyme, UniProt Q42690 28-377, looked up)
chain: GKYDEELIKTAGTVASKGRGILAMDESNATCGKRLDSIGVENTEENRRAYRELLVTAPGLGQYISGAILFEETLYQSTASGKKFVDVMKEQNIVPGIKVDKGLVPLSNTNGESWCMGLDGLDKRCAEYYKAGARFAKWRSVVSIPHGPSIIAARDCAYGLARYAAIAQNAGLVPIVEPEVLLDGEHDIDRCLEVQEAIWAETFKYMADNKVMFEGILLKPAMVTPGADCKNKAGPAKVAEYTLKMLRRRVPPAVPGIMFLSGGQSELESTLNLNAMNQSPNPWHVSFSYARALQNTVLKTWQGKPENVQAAQAALLKRAKANSDAQQGKYDATTEGKEAAQGMYEKGYVY

How the values were obtained:
[1] = biological target: FBA3 in soluble extracts of Chlamydomonas cultures (Chlamydomonas reinhardtii (endogenous in Chlamydomonas cultures)); assay: SEC
SEC = biological target: the molecule itself; assay: SEC

Molecule | stoichiometry N [1] | stoichiometry N (SEC)
FBA3 in soluble extracts of Chlamydomonas cultures (enzyme) | 4 | –
B1 | – | 4
